# Test results reported in PMC12636033, “Chemical Engineering of Transcription Factors Uncovered Cell-Permeable μMax Modulators”.
# B1: dBr_Jan07_33794 (dsDNA)
# DNA 1: TATTAGAATGTCAGCTCTCAATCACGTGATTCGGAAGTCTGTGTTCCGTTGTCCGTGCTG
# DNA 2: CAGCACGGACAACGGAACACAGACTTCCGAATCACGTGATTGAGAGCTGACATTCTAATA
# B2: dBr_Jan07_04879 (dsDNA)
# DNA 1: ATAACGGCCCGCCTGGACTGATACTCTGTCGCACCAGTCTGTGTTCCGTTGTCCGTGCTG
# DNA 2: CAGCACGGACAACGGAACACAGACTGGTGCGACAGAGTATCAGTCCAGGCGGGCCGTTAT
# B3: dBr_Jan07_01315 (dsDNA)
# DNA 1: ATTACCTACTCAACTTACTAGGAAACACGTGCACATGTCTGTGTTCCGTTGTCCGTGCTG
# DNA 2: CAGCACGGACAACGGAACACAGACATGTGCACGTGTTTCCTAGTAAGTTGAGTAGGTAAT
# B4: dBr_Jan07_16409 (dsDNA)
# DNA 1: CGTTACTGGTGCACGTGTTCTCCTCTCCACCTTCAGGTCTGTGTTCCGTTGTCCGTGCTG
# DNA 2: CAGCACGGACAACGGAACACAGACCTGAAGGTGGAGAGGAGAACACGTGCACCAGTAACG
# B5: dBr_Jan07_16923 (dsDNA)
# DNA 1: TGGGTCATGCTCGAACAGCGTCACTAGGTAGCACGTGTCTGTGTTCCGTTGTCCGTGCTG
# DNA 2: CAGCACGGACAACGGAACACAGACACGTGCTACCTAGTGACGCTGTTCGAGCATGACCCA
# B6: dBr_Jan07_22788 (dsDNA)
# DNA 1: TTGTTTCGCATCGCTAGGCATTGATAACGGAAGCTGGTCTGTGTTCCGTTGTCCGTGCTG
# DNA 2: CAGCACGGACAACGGAACACAGACCAGCTTCCGTTATCAATGCCTAGCGATGCGAAACAA
# B7: dBr_Jan07_19630 (dsDNA)
# DNA 1: AAGCGAGCAGATAAGCCTAAGCCCGAGCTGAACAAAGTCTGTGTTCCGTTGTCCGTGCTG
# DNA 2: CAGCACGGACAACGGAACACAGACTTTGTTCAGCTCGGGCTTAGGCTTATCTGCTCGCTT
# B8: dBr_Jan07_09107 (dsDNA)
# DNA 1: TCTCCTGTGACAATTACGCCCCCCCCAGGCGCCTACGTCTGTGTTCCGTTGTCCGTGCTG
# DNA 2: CAGCACGGACAACGGAACACAGACGTAGGCGCCTGGGGGGGGCGTAATTGTCACAGGAGA
# B9: dBr_Jan07_39455 (dsDNA)
# DNA 1: TGAAAGACCTTAGATGGGCTTGTCTCTTGGCGTTTGGTCTGTGTTCCGTTGTCCGTGCTG
# DNA 2: CAGCACGGACAACGGAACACAGACCAAACGCCAAGAGACAAGCCCATCTAAGGTCTTTCA
# B10: dBr_Jan07_00062 (dsDNA)
# DNA 1: TGGTGACCTGAGAGGCCGGTTGCTTCAGCCTACAACGTCTGTGTTCCGTTGTCCGTGCTG
# DNA 2: CAGCACGGACAACGGAACACAGACGTTGTAGGCTGAAGCAACCGGCCTCTCAGGTCACCA
# B11: dBr_Jan07_16464 (dsDNA)
# DNA 1: AGATCCAACGAGAGTTATGGACAAACTGGTCCTACAGTCTGTGTTCCGTTGTCCGTGCTG
# DNA 2: CAGCACGGACAACGGAACACAGACTGTAGGACCAGTTTGTCCATAACTCTCGTTGGATCT
# B12: dBr_Jan07_32293 (dsDNA)
# DNA 1: TCGCGGCTCGAAGCACCCTCCCCAGGGGCATCAGCAGTCTGTGTTCCGTTGTCCGTGCTG
# DNA 2: CAGCACGGACAACGGAACACAGACTGCTGATGCCCCTGGGGAGGGTGCTTCGAGCCGCGA
# B13: dBr_Jan07_04478 (dsDNA)
# DNA 1: AGTTGCGCCACTATGCCAAAACACCATTGAGCACGTGTCTGTGTTCCGTTGTCCGTGCTG
# DNA 2: CAGCACGGACAACGGAACACAGACACGTGCTCAATGGTGTTTTGGCATAGTGGCGCAACT
# B14: dBr_Jan07_36814 (dsDNA)
# DNA 1: GCGCAAGCCATGACCCGGTACGATTTAGAAATGGCGGTCTGTGTTCCGTTGTCCGTGCTG
# DNA 2: CAGCACGGACAACGGAACACAGACCGCCATTTCTAAATCGTACCGGGTCATGGCTTGCGC
# B15: dBr_Jan07_22649 (dsDNA)
# DNA 1: TTACATACCAGGACTTATCGCATAGGTAGGCTGAGAGTCTGTGTTCCGTTGTCCGTGCTG
# DNA 2: CAGCACGGACAACGGAACACAGACTCTCAGCCTACCTATGCGATAAGTCCTGGTATGTAA
# B16: dBr_Jan07_03962 (dsDNA)
# DNA 1: TGGCCGCCACGTGGCGCTCTGCGGTCACATGTTGGGGTCTGTGTTCCGTTGTCCGTGCTG
# DNA 2: CAGCACGGACAACGGAACACAGACCCCAACATGTGACCGCAGAGCGCCACGTGGCGGCCA
# B17: dBr_Jan07_10036 (dsDNA)
# DNA 1: CCGCGGACAGGTTCAGCCATCCGACTGCTACGCACAGTCTGTGTTCCGTTGTCCGTGCTG
# DNA 2: CAGCACGGACAACGGAACACAGACTGTGCGTAGCAGTCGGATGGCTGAACCTGTCCGCGG
# B18: dBr_Jan07_16204 (dsDNA)
# DNA 1: ATGAACCAATCGGTCGATTAGAGATAGAGAAAGAAGGTCTGTGTTCCGTTGTCCGTGCTG
# DNA 2: CAGCACGGACAACGGAACACAGACCTTCTTTCTCTATCTCTAATCGACCGATTGGTTCAT
# B19: dBr_Jan07_20877 (dsDNA)
# DNA 1: TAAACCTAGAGACGCTAAGAACACTTACAGGCGAGCGTCTGTGTTCCGTTGTCCGTGCTG
# DNA 2: CAGCACGGACAACGGAACACAGACGCTCGCCTGTAAGTGTTCTTAGCGTCTCTAGGTTTA
# B20: dBr_Jan07_22161 (dsDNA)
# DNA 1: GAATTTACCCGCGCTGTTGGTCACGTGTGTGGTTTTGTCTGTGTTCCGTTGTCCGTGCTG
# DNA 2: CAGCACGGACAACGGAACACAGACAAAACCACACACGTGACCAACAGCGCGGGTAAATTC
# B21: dBr_Jan07_26545 (dsDNA)
# DNA 1: ACTGCGCCGGAGAGTTCAACGAACTACTACGTCGAAGTCTGTGTTCCGTTGTCCGTGCTG
# DNA 2: CAGCACGGACAACGGAACACAGACTTCGACGTAGTAGTTCGTTGAACTCTCCGGCGCAGT
# B22: dBr_Jan07_17648 (dsDNA)
# DNA 1: TTGCGCCCCCAGTCCCGGATATCATAGGAACGAGGAGTCTGTGTTCCGTTGTCCGTGCTG
# DNA 2: CAGCACGGACAACGGAACACAGACTCCTCGTTCCTATGATATCCGGGACTGGGGGCGCAA
# B23: dBr_Jan07_02776 (dsDNA)
# DNA 1: GACGAAGTAAGGCTAGCTTGTCGCTAAAAAGACGCAGTCTGTGTTCCGTTGTCCGTGCTG
# DNA 2: CAGCACGGACAACGGAACACAGACTGCGTCTTTTTAGCGACAAGCTAGCCTTACTTCGTC
# B24: dBr_Jan07_03145 (dsDNA)
# DNA 1: CCGATTTAGGAGCGGGTAAATACAGGCAGCTCTCTGGTCTGTGTTCCGTTGTCCGTGCTG
# DNA 2: CAGCACGGACAACGGAACACAGACCAGAGAGCTGCCTGTATTTACCCGCTCCTAAATCGG
# B25: dBr_Jan07_16171 (dsDNA)
# DNA 1: ATCACGTGCATCTACTAGACACCCCATGCGTTAGGCGTCTGTGTTCCGTTGTCCGTGCTG
# DNA 2: CAGCACGGACAACGGAACACAGACGCCTAACGCATGGGGTGTCTAGTAGATGCACGTGAT
# B26: dBr_Jan07_10189 (dsDNA)
# DNA 1: GTTTGTGAGGTTCCTGACTCTGAGCGGACCGGTAGAGTCTGTGTTCCGTTGTCCGTGCTG
# DNA 2: CAGCACGGACAACGGAACACAGACTCTACCGGTCCGCTCAGAGTCAGGAACCTCACAAAC
# B27: dBr_Jan07_30895 (dsDNA)
# DNA 1: TTGCCGTATAGTGATCCTAAGCGTCCACGTGGATGAGTCTGTGTTCCGTTGTCCGTGCTG
# DNA 2: CAGCACGGACAACGGAACACAGACTCATCCACGTGGACGCTTAGGATCACTATACGGCAA
# B28: dBr_Jan07_11943 (dsDNA)
# DNA 1: GGGCCGGTAAACGGACTGGTACGATGAAGCGCACGTGTCTGTGTTCCGTTGTCCGTGCTG
# DNA 2: CAGCACGGACAACGGAACACAGACACGTGCGCTTCATCGTACCAGTCCGTTTACCGGCCC
# B29: dBr_Jan07_39645 (dsDNA)
# DNA 1: AGATCAAAACGTAAGACGACAGGCGAACTTCAGTAAGTCTGTGTTCCGTTGTCCGTGCTG
# DNA 2: CAGCACGGACAACGGAACACAGACTTACTGAAGTTCGCCTGTCGTCTTACGTTTTGATCT
# B30: dBr_Jan07_25737 (dsDNA)
# DNA 1: TGCACGACCAGTCATCCACGTGTTTGCCCGCAAAGTGTCTGTGTTCCGTTGTCCGTGCTG
# DNA 2: CAGCACGGACAACGGAACACAGACACTTTGCGGGCAAACACGTGGATGACTGGTCGTGCA
# B31: dBr_Jan07_07176 (dsDNA)
# DNA 1: TATGCGTTGGCCATCTTAATTCCACGTGGTGTCCTCGTCTGTGTTCCGTTGTCCGTGCTG
# DNA 2: CAGCACGGACAACGGAACACAGACGAGGACACCACGTGGAATTAAGATGGCCAACGCATA
# B32: dBr_Jan07_10789 (dsDNA)
# DNA 1: ACGAGTGGCCCTCGCATCGCGGAAGCTAGACTGATTGTCTGTGTTCCGTTGTCCGTGCTG
# DNA 2: CAGCACGGACAACGGAACACAGACAATCAGTCTAGCTTCCGCGATGCGAGGGCCACTCGT
# B33: dBr_Jan07_38419 (dsDNA)
# DNA 1: ATTGCTCAGTGACACAGATATGAAGCGCTATGCATCGTCTGTGTTCCGTTGTCCGTGCTG
# DNA 2: CAGCACGGACAACGGAACACAGACGATGCATAGCGCTTCATATCTGTGTCACTGAGCAAT
# Target: WT Max (Homo sapiens, UniProt P61244-2 13-93, M65Nle, norleucine written as M; other non-natural residues written as X)
# Sequence (P61244 other isoform, or with tags, fused parts or gaps M65Nle): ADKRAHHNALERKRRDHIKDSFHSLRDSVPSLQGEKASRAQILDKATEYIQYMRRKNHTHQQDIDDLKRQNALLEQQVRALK
# Experiment: PBM; 50-200 nM protein; PBS, 2% milk, BSA, salmon testes DNA, 0.02% Triton X-100
# Settings: chain copies: 2; label: surface-attached array probe
row,Binder,binding signal
1,B1,"4.69 robust z of log adjusted intensity (ours), mean of two arrays"
2,B2,"-0.92 robust z of log adjusted intensity (ours), mean of two arrays"
3,B3,"5.18 robust z of log adjusted intensity (ours), mean of two arrays"
4,B4,"4.95 robust z of log adjusted intensity (ours), mean of two arrays"
5,B5,"4.47 robust z of log adjusted intensity (ours), mean of two arrays"
6,B6,"-0.82 robust z of log adjusted intensity (ours), mean of two arrays"
7,B7,"-0.87 robust z of log adjusted intensity (ours), mean of two arrays"
8,B8,"-1.31 robust z of log adjusted intensity (ours), mean of two arrays"
9,B9,"-0.88 robust z of log adjusted intensity (ours), mean of two arrays"
10,B10,"-0.8 robust z of log adjusted intensity (ours), mean of two arrays"
11,B11,"-1 robust z of log adjusted intensity (ours), mean of two arrays"
12,B12,"-0.93 robust z of log adjusted intensity (ours), mean of two arrays"
13,B13,"4.55 robust z of log adjusted intensity (ours), mean of two arrays"
14,B14,"-1.34 robust z of log adjusted intensity (ours), mean of two arrays"
15,B15,"-0.77 robust z of log adjusted intensity (ours), mean of two arrays"
16,B16,"4.57 robust z of log adjusted intensity (ours), mean of two arrays"
17,B17,"-0.76 robust z of log adjusted intensity (ours), mean of two arrays"

row,Binder,binding signal
1,B18,"-1.46 robust z of log adjusted intensity (ours), mean of two arrays"
2,B19,"-1.02 robust z of log adjusted intensity (ours), mean of two arrays"
3,B20,"5.72 robust z of log adjusted intensity (ours), mean of two arrays"
4,B21,"-0.92 robust z of log adjusted intensity (ours), mean of two arrays"
5,B22,"-1.18 robust z of log adjusted intensity (ours), mean of two arrays"
6,B23,"-1.15 robust z of log adjusted intensity (ours), mean of two arrays"
7,B24,"-1.12 robust z of log adjusted intensity (ours), mean of two arrays"
8,B25,"6.35 robust z of log adjusted intensity (ours), mean of two arrays"
9,B26,"-0.8 robust z of log adjusted intensity (ours), mean of two arrays"
10,B27,"4.78 robust z of log adjusted intensity (ours), mean of two arrays"
11,B28,"4.72 robust z of log adjusted intensity (ours), mean of two arrays"
12,B29,"-1.15 robust z of log adjusted intensity (ours), mean of two arrays"
13,B30,"4.58 robust z of log adjusted intensity (ours), mean of two arrays"
14,B31,"4.6 robust z of log adjusted intensity (ours), mean of two arrays"
15,B32,"-0.92 robust z of log adjusted intensity (ours), mean of two arrays"
16,B33,"-0.96 robust z of log adjusted intensity (ours), mean of two arrays"
